# Measurements reported in the RNAGym collection of RNA variant scans (doi:10.7554/elife.80360).
# B1: CPEB3 Ribozyme (parent)
# chain: GGGGGCCACAGCAGAAGCGUUCACGUCGCGGCCCCUGUCAGAUUCUGGUGAAUCUGCGAAUUCUGCUGU
# Variants of: B1
# Test: self-cleavage, relative activity (ratio to wild type); higher = more cleavage; co-transcriptional
row,Variant,self-cleavage
1,GGGGGCCACAGCAGAAGCGUUCACGUCGCGGCCCCUGUCUGAUUCUGGUGAAUCUGCCAAUUCUGCUGU [A40U G58C],0.881
2,GGGGGCCACAGCAGAAGCGUUCACGUCGCGGCCCCUGUCUGAUUCUGGUGAAUCUGCUAAUUCUGCUGU [A40U G58U],0.931
3,GGGGGCCACAGCAGAAGCGUUCACGUCGCGGCCCCUGUCUGAUUCUGGUGAAUCUGCAAAUUCUGCUGU [A40U G58A],0.797
4,GGGGGCCACAGCAGAAGCGUUCACGUCGCGGCCCCUGUCUGAUUCUGGUGAAUCUGCGAAUUCUGCUGU [A40U],0.901
5,GGGGGCCACAGCAGAAGCGUUCACGUCGCGGCCCCUGUCCGAUUCUGGUGAAUCUGCGAAUUCUGCUGU [A40C],0.702
6,GGGGGCCACAGCAGAAGCGUUCACGUCGCGGCCCCUGUCGGAUUCUGGUGAAUCUGCGAAUUCUGCUGU [A40G],0.97
7,GGGGGCCACAGCAGAAGCGUUCACGUCGCGGCCCCUGUCCGAUCCUGGUGAAUCUGCGAAUUCUGCUGU [A40C U44C],0.368
8,GGGGGCCACAGCAGAAGCGUUCACGUCGCGGCCCCUGUCCGAUGCUGGUGAAUCUGCGAAUUCUGCUGU [A40C U44G],0.419
9,GGGGGCCACAGCAGAAGCGUUCACGUCGCGGCCCCUGUCCGAUACUGGUGAAUCUGCGAAUUCUGCUGU [A40C U44A],0.417
10,GGGGGCCACAGCAGAAGCGUUCACGUCGCGGCCCCUGUCGGAUUCUCGUGAAUCUGCGAAUUCUGCUGU [A40G G47C],1
11,GGGGGCCACAGCAGAAGCGUUCACGUCGCGGCCCCUGUCGGAUUCUGGUGAAUAUGCGAAUUCUGCUGU [A40G C54A],0.701
12,GGGGGCCACAGCAGAAGCGUUCACGUCGCGGCCCCUGUCGGAUUCUGGUGAAUGUGCGAAUUCUGCUGU [A40G C54G],0.656
13,GGGGGCCACAGCAGAAGCGUUCACGUCGCGGCCCCUGUCGGAUUCUGGUGAAUCUGCGAAUUCUGCAGU [A40G U67A],0.941
14,GGGGGCCACAGCAGAAGCGUUCACGUCGCGGCCCCUGUUAGAUUCUGGUGAAUCUGCGAAUUCAGCUGU [C39U U64A],0.616
15,GGGGGCCACAGCAGAAGCGUUCACGUCGCGGCCCCUGUCCGAUUCUGGUAAAUCUGCGAAUUCUGCUGU [A40C G50A],0.423
16,GGGGGCCACAGCAGAAGCGUUCACGUCGCGGCCCCUGUCCGAUUCUGGUCAAUCUGCGAAUUCUGCUGU [A40C G50C],0.424
17,GGGGGCCACAGCAGAAGCGUUCACGUCGCGGCCCCUGUCCGAUUCUGGUGACUCUGCGAAUUCUGCUGU [A40C A52C],0.347
18,GGGGGCCACAGCAGAAGCGUUCACGUCGCGGCCCCUGUCCGAUUCUGGUGAUUCUGCGAAUUCUGCUGU [A40C A52U],0.365
19,GGGGGCCACAGCAGAAGCGUUCACGUCGCGGCCCCUGUCCGAUUCUGGUGAAUGUGCGAAUUCUGCUGU [A40C C54G],0.323
20,GGGGGCCACAGCAGAAGCGUUCACGUCGCGGCCCCUGUCGGAUUCUGGUGAAUCUGCGAAUACUGCUGU [A40G U62A],0.837
21,GGGGGCCACAGCAGAAGCGUUCACGUCGCGGCCCCUGUCGGAUUCUGGUGAAUCUGCGAAUGCUGCUGU [A40G U62G],0.858
22,GGGGGCCACAGCAGAAGCGUUCACGUCGCGGCCCCUGUCGGAUUCUGGUGGAUCUGCGAAUUCUGCUGU [A40G A51G],0.979
23,GGGGGCCACAGCAGAAGCGUUCACGUCGCGGCCCCUGUCUGAUUCUGGUGAAUCUGCGAAUUAUGCUGU [A40U C63A],0.364
24,GGGGGCCACAGCAGAAGCGUUCACGUCGCGGCCCCUGUCCGAUUCUCGUGAAUCUGCGAAUUCUGCUGU [A40C G47C],0.794
25,GGGGGCCACAGCAGAAGCGUUCACGUCGCGGCCCCUGUCCUAUUCUGGUGAAUCUGCGAAUUCUGCUGU [A40C G41U],0.22
26,GGGGGCCACAGCAGAAGCGUUCACGUCGCGGCCCCUGUCUGAUUCUGGUGAAUCUGCGAGUUCUGCUGU [A40U A60G],0.47

row,Variant,self-cleavage
1,GGGGGCCACAGCAGAAGCGUUCACGUCGCGGCCCCUGUCGGAUUCUGGUGAAUCAGCGAAUUCUGCUGU [A40G U55A],0.858
2,GGGGGCCACAGCAGAAGCGUUCACGUCGCGGCCCCUGUCGGAUUCUGGUGAAUCCGCGAAUUCUGCUGU [A40G U55C],1
3,GGGGGCCACAGCAGAAGCGUUCACGUCGCGGCCCCUGUCGGAUUCUGGUGAAUCGGCGAAUUCUGCUGU [A40G U55G],0.757
4,GGGGGCCACAGCAGAAGCGUUCACGUCGCGGCCCCUGUCCGAUUCUGGUGAAUCUGCGAAUUAUGCUGU [A40C C63A],0.321
5,GGGGGCCACAGCAGAAGCGUUCACGUCGCGGCCCCUGUCGGAUACUGGUGAAUCUGCGAAUUCUGCUGU [A40G U44A],0.907
6,GGGGGCCACAGCAGAAGCGUUCACGUCGCGGCCCCUGUCGGAUUCUGGUGAAUCUGCGAAUUCUGCUUU [A40G G68U],0.987
7,GGGGGCCACAGCAGAAGCGUUCACGUCGCGGCCCCUGUCCGAUUCUGGUGAAUCUGCAAAUUCUGCUGU [A40C G58A],0.659
8,GGGGGCCACAGCAGAAGCGUUCACGUCGCGGCCCCUGUCCGAUUCUGGUGAAUCUGCGAAUUCUGCUGG [A40C U69G],0.875
9,GGGGGCCACAGCAGAAGCGUUCACGUCGCGGCCCCUGUCUGAUUCUGGUGAAUCUGCGCAUUCUGCUGU [A40U A59C],0.285
10,GGGGGCCACAGCAGAAGCGUUCACGUCGCGGCCCCUGUCCGAUUCUGGUGAAUCUGCGACUUCUGCUGU [A40C A60C],0.34
11,GGGGGCCACAGCAGAAGCGUUCACGUCGCGGCCCCUGUCCGAUUCUGGUGAAUCUGCGAGUUCUGCUGU [A40C A60G],0.225
12,GGGGGCCACAGCAGAAGCGUUCACGUCGCGGCCCCUGUCCGAUUCUGGUGAAUCUGCGAAUUCUGCUCU [A40C G68C],0.749
13,GGGGGCCACAGCAGAAGCGUUCACGUCGCGGCCCCUGUCCGAUUCUGGUGAAUCUGCGAAUUCUGCUUU [A40C G68U],0.806
14,GGGGGCCACAGCAGAAGCGUUCACGUCGCGGCCCCUGUCGGAUUCUGGUGAAUCUCCGAAUUCUGCUGU [A40G G56C],0.779
15,GGGGGCCACAGCAGAAGCGUUCACGUCGCGGCCCCUGUCCGAUUCUGAUGAAUCUGCGAAUUCUGCUGU [A40C G48A],0.882
16,GGGGGCCACAGCAGAAGCGUUCACGUCGCGGCCCCUGUCCGAUUCUGCUGAAUCUGCGAAUUCUGCUGU [A40C G48C],0.716
17,GGGGGCCACAGCAGAAGCGUUCACGUCGCGGCCCCUGUCCGAUUCUGGUGAAUCUGCGUAUUCUGCUGU [A40C A59U],0.381
18,GGGGGCCACAGCAGAAGCGUUCACGUCGCGGCCCCUGUCGGAUUGUGGUGAAUCUGCGAAUUCUGCUGU [A40G C45G],0.942
19,GGGGGCCACAGCAGAAGCGUUCACGUCGCGGCCCCUGUCGGAUUCUGGUGAAUCUGCGUAUUCUGCUGU [A40G A59U],0.691
20,GGGGGCCACAGCAGAAGCGUUCACGUCGCGGCCCCUGUCCGAUUCUGGUGAAUCUGCGAAUUCCGCUGU [A40C U64C],0.357
21,GGGGGCCACAGCAGAAGCGUUCACGUCGCGGCCCCUGUCCGAUUCUGGUGAAUCUGCGAAUUCGGCUGU [A40C U64G],0.403
22,GGGGGCCACAGCAGAAGCGUUCACGUCGCGGCCCCUGUCUGAUUCUGGUGAAUCUGAGAAUUCUGCUGU [A40U C57A],0.333
23,GGGGGCCACAGCAGAAGCGUUCACGUCGCGGCCCCUGUCUGAUUCUGGUGAAUCUGUGAAUUCUGCUGU [A40U C57U],0.302
24,GGGGGCCACAGCAGAAGCGUUCACGUCGCGGCCCCUGUCCGAUUCUGGUGAAUCGGCGAAUUCUGCUGU [A40C U55G],0.951
25,GGGGGCCACAGCAGAAGCGUUCACGUCGCGGCCCCUGUCUGAUUCUGGUGAAUCUUCGAAUUCUGCUGU [A40U G56U],0.552
26,GGGGGCCACAGCAGAAGCGUUCACGUCGCGGCCCCUGUCUGAUUCUGGUGAAUCUCCGAAUUCUGCUGU [A40U G56C],0.475

row,Variant,self-cleavage
1,GGGGGCCACAGCAGAAGCGUUCACGUCGCGGCCCCUGUCGGAUUCUGGUGAAUCUGCGAAUUCUUCUGU [A40G G65U],0.519
2,GGGGGCCACAGCAGAAGCGUUCACGUCGCGGCCCCUGUUAGAUUCUGGUGAAUCUGCGAAGUCUGCUGU [C39U U61G],0.577
3,GGGGGCCACAGCAGAAGCGUUCACGUCGCGGCCCCUGUUAGAUUCUGGUGAAUCUGCGAAUUCUGCUGG [C39U U69G],1.05
4,GGGGGCCACAGCAGAAGCGUUCACGUCGCGGCCCCUGUUAGAUUCUGGUGAAUCUGCGAAUUCUGCUGA [C39U U69A],0.94
5,GGGGGCCACAGCAGAAGCGUUCACGUCGCGGCCCCUGUCUGAUUCUGGUGAAUAUGCGAAUUCUGCUGU [A40U C54A],0.435
6,GGGGGCCACAGCAGAAGCGUUCACGUCGCGGCCCCUGUCGGAUUCUGGUGAAUCUGCGAAUUCCGCUGU [A40G U64C],0.737
7,GGGGGCCACAGCAGAAGCGUUCACGUCGCGGCCCCUGUCGGAUUCUGGUGAAUCUGCGAAUUCGGCUGU [A40G U64G],0.796
8,GGGGGCCACAGCAGAAGCGUUCACGUCGCGGCCCCUGUCCGAUUCUGGUGAAUCUGUGAAUUCUGCUGU [A40C C57U],0.287
9,GGGGGCCACAGCAGAAGCGUUCACGUCGCGGCCCCUGUCCGAUUCUGGUGAAUCUGCGAAUUCUGCCGU [A40C U67C],0.539
10,GGGGGCCACAGCAGAAGCGUUCACGUCGCGGCCCCUGUCUGAUUCUUGUGAAUCUGCGAAUUCUGCUGU [A40U G47U],0.912
11,GGGGGCCACAGCAGAAGCGUUCACGUCGCGGCCCCUGUCUGAUUCUAGUGAAUCUGCGAAUUCUGCUGU [A40U G47A],0.885
12,GGGGGCCACAGCAGAAGCGUUCACGUCGCGGCCCCUGUCCGAUUCUGGUGAAUCUGCGAAUUCUUCUGU [A40C G65U],0.354
13,GGGGGCCACAGCAGAAGCGUUCACGUCGCGGCCCCUGUCUGAUUCUGGUGACUCUGCGAAUUCUGCUGU [A40U A52C],0.561
14,GGGGGCCACAGCAGAAGCGUUCACGUCGCGGCCCCUGUCUGAUUCUGGUGAUUCUGCGAAUUCUGCUGU [A40U A52U],0.477
15,GGGGGCCACAGCAGAAGCGUUCACGUCGCGGCCCCUGUCGGAUUCUGGUGAGUCUGCGAAUUCUGCUGU [A40G A52G],0.903
16,GGGGGCCACAGCAGAAGCGUUCACGUCGCGGCCCCUGUCGGAUUCUGGUGACUCUGCGAAUUCUGCUGU [A40G A52C],0.87
17,GGGGGCCACAGCAGAAGCGUUCACGUCGCGGCCCCUGUCGGAUUCUGGUGAUUCUGCGAAUUCUGCUGU [A40G A52U],0.851
18,GGGGGCCACAGCAGAAGCGUUCACGUCGCGGCCCCUGUCUCAUUCUGGUGAAUCUGCGAAUUCUGCUGU [A40U G41C],0.592
19,GGGGGCCACAGCAGAAGCGUUCACGUCGCGGCCCCUGUCUUAUUCUGGUGAAUCUGCGAAUUCUGCUGU [A40U G41U],0.664
20,GGGGGCCACAGCAGAAGCGUUCACGUCGCGGCCCCUGUCGGCUUCUGGUGAAUCUGCGAAUUCUGCUGU [A40G A42C],0.81
21,GGGGGCCACAGCAGAAGCGUUCACGUCGCGGCCCCUGUCGGAUUCUGGUGAAUCUGCGAAUUCUGGUGU [A40G C66G],0.67
22,GGGGGCCACAGCAGAAGCGUUCACGUCGCGGCCCCUGUCGGAUUCUGGUGAAUCUGUGAAUUCUGCUGU [A40G C57U],0.311
23,GGGGGCCACAGCAGAAGCGUUCACGUCGCGGCCCCUGUCGGAUUCUGGUGAAUCUGAGAAUUCUGCUGU [A40G C57A],0.34
24,GGGGGCCACAGCAGAAGCGUUCACGUCGCGGCCCCUGUCUGAUUCUGAUGAAUCUGCGAAUUCUGCUGU [A40U G48A],0.977
25,GGGGGCCACAGCAGAAGCGUUCACGUCGCGGCCCCUGUCCGAUUCUGGUGCAUCUGCGAAUUCUGCUGU [A40C A51C],0.359
26,GGGGGCCACAGCAGAAGCGUUCACGUCGCGGCCCCUGUCUGAUUCUGGUUAAUCUGCGAAUUCUGCUGU [A40U G50U],0.749
